Assay results: patent US20180140690A1

Experiments:
[1] = molecular target: XC-chemokine receptor 1 (XCR1) on mouse dermal dendritic cells (mouse) (UniProt Q9R0M1); assay: cell-based or functional assay
[2] = molecular target: XC-chemokine receptor 1 (XCR1) on mouse dermal dendritic cells (mouse) (UniProt Q9R0M1); assay: flow cytometry of ear skin cells 24 h after laser-assisted delivery of the vaccibody in vivo; staining depended on XCR1 expression (Xcr1-/- mice)

UniProt Q9R0M1, sequence (Q9R0M1 whole entry): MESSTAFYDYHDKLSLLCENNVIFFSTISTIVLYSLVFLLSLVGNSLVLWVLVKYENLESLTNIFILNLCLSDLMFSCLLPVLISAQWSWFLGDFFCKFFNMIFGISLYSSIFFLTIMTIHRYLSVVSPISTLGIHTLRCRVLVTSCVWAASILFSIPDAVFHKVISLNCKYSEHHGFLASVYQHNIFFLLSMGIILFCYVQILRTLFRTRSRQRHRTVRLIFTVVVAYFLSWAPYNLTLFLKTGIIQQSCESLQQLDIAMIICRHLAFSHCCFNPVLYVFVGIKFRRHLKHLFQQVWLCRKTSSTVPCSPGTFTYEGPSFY

OT-I CD8+ T cell proliferation in ear-draining lymph nodes (CTV dilution), against free OVA on a per molecule basis [1] | OT-II CD4+ T cell proliferation in ear-draining lymph nodes (CTV dilution), against free OVA on a per molecule basis [1] | percent of XCR1+ dermal DCs stained [2] | Substance
15 times | 3 times |  | XCL1-OVA vaccibodies (from UniProt P47993 22-114; P01860 99-377; P01012 2-386)
 |  | 15% | XCL1-mCherry vaccibodies (from UniProt P47993 22-114; P01860 99-377)
